In the DeepSol protein solubility set:

Assay: soluble on expression in E. coli; label from the status in PepcDB or PDB records

| Sequence | soluble on expression in E. coli |
| --- | --- |
| MTLSFTARWRDELPATYTALLPTPLKNARLIWYNDELAQQLAIPASLFDATNGAGVWGGETLLPGMSPVAQVYSGHQFGVWAGQLGDGRGILLGEQLLADGSTLDWHLKGAGLTPYSRMGDGRAVLRSTIRESLASEAMHYLGIPTTRALSIVTSDTPVQRETQETGAMLMRLAQSHMRFGHFEHFYYRREPEKVQQLADFAIRHYWPQWQDVAEKYALWFEEVAARTGRLIAEWQTVGFAHGVMNTDNMSILGLTIDYGPFGFLDDYDPGFIGNHSDHQGRYRFDNQPSVALWNLQRLAQTLTPFIEIDALNRALDRYQDALLTHYGQRMRQKLGFFTEQKDDNVLLNELFSLMAREGSDYTRTFRMLSHTEQQSASSPLRDTFIDRAAFDAWFDRYRARLRTEAVDDALRQQQMQRVNPAIVLRNWLAQRAIDAAEQGDMAELHRLHEVLRQPFTDRDDDYASRPPEWGKRLEVSCSSMAGDPLEHHHHHH | not soluble |
| MTLKELYAETRSHMQKSLEVLEHNLAGLRTGRANPALLLHLKVEYYGAHVPLNQIATVTAPDPRTLVVQSWDQNALKAIEKAIRDSDLGLNPSNKGDALYINIPPLTEERRKDLVRAVRQYAEEGRVAIRNIRREALDKLKKLAKELHLSEDETKRAEAEIQKITDEFIAKADQLAEKKEQEILG | soluble |
| PRTRECDYCGTDIEPGTGTMFVHKDGATTHFCSSKCENNADLGREARNLEWTDTARGEAGEAEDEA | soluble |
| SDIELIHCGADLVERMMNDIRQAASSVHMMFFIMKNDEVSHNMYTLLKTKAQAGVSVYLLLDWAGCRAIKKTALQTMKNAGVHVHVMNRPRFPFFFFHMQKRNHRKITVIDGKIGYIGGFNIAEEYLGKKAKFGNWEDYHLRMIGEGVHDLQTLFASDLKRNTGIELGSDVWPKLQQGTISHKIYATDGYSLENIYLANIAQAKNRLTVCTPYYIPSKPLQEALINARKNGVSVRIIVPMKSDHPLVREAAFTYYSELLDAGCLIYRYYQGFYHVKALIIDDHLSIIGTANFDKRSLFLNEEVNVEIDDEAFTSEVYATIEEDMKKSELLTMEDFSKRTFRQRPAEWLGR | not soluble |
| MYKLDHLNHNTLDESSLELHETPKGYTNVALFGLDSRDGELSGGVRSDSIMIVSINNKTGDVKIISVYRDTLLKQQDGSYEKANAAYSFGGPQEAVAMLNRNLDLDITKYASVNFNSLADIIDILGGVEVELTSEEIFWLNGYTAETSQVVGRQTHTLDENSPGVHNLDGIQAVSYTRIRYTAGDDFKRAERQRIILQKMIQKLKTAGPVKWNKILDQVLPEISTNMTTPDIMKLGLNIFRYKIGETKGFPFDITTSENVIGLEGSYAVAIGHADNVRQLHEQLFGETGYQPSDEVQQISQDVAYLTGVLEHHHHHH | soluble |
| GMPQPTVLLLARADLSPVGTEFTTGPIDAHDPFDSGRRTAFVDEQGIAAGIVEFGTALSVEAYPYTEMLVMHRGSVTLTSGTDSVTLSTGESAVIGRGTQVRIDAQPESLWAFCASTQASGPDKSGITALDRLALLTPSSPPDPSIMISPLPQCRSNNLFEDTASTLRIGVWDSTPYERISRPHKIHELMNLIEGRVVLSLENGSSLTVNTGDTVFVAQGAPCKWTSTGYVRKFYAVT | soluble |
| SGGPGTKSGEPLCPPLLCNQDKETLTLLIQVPRIQPQSLQGDLNPLWYKLRFSAQDLVYSFFLQFAPENKLSTTEPVISISSNNAVIELAKSPESHGHWREWYYGVNNDSLELQECSNSDQLQGKEERVNEESHLTEKEYIEHCNTPTTDSDSSIAVKALQIDSFGLVTCFQQESLDVSQMILGKSQQPESKMQSEFIKEKSATCSNEEKDNLNESVITEEKETDGDHLSSLLNKTTVHNIPGFDSIKETNMQDGSVQVIKDHVTNCAFSFQNSLLYDLD | soluble |
| MKTINVFHYDAFTNKPNMGNPAGIVLDADGLTEEEMQRIAEKVGFNETSFVLSSEVADIRMRYFTPGYEMDLCGHGTVGTIYALRERGLLEEKASLTIETKAGILPIQIGVNENGETFIKMRQTAPQFKDFAGSKEELAHSIGLEVNDLDVSLPIVYGSTGNWTVIVPVKNLDVCERMKPNNEVFPSVLKEIPNASIHPICLETYDEKVHMHGRHFSSAYAGTIEDPVTGTASGVMGAYYATYVEKDFDHEMELIVEQGQEIHKDGRVTVYVTKDVESEKLQIDIAGTAVYVKEFEVLI | soluble |
| IDFRGIEKQGGRVLIDVSDTGIPIDVTQVGKEIVVNFLNTKIPLNLMKRYDVSDFHSPVQIITMQQEGKKVRMTILSKGDYGHFVYQVNKQFMVDVFPLTAEEIR | not soluble |
